Test results published in the Human Domainome abundance scans (Beltran et al. 2025).
± gives the uncertainty stated by the source.

B1: Storkhead-box protein 2, residues 64 to 141; numbered along this chain, Q9P2F5 (parent)
chain: SPISQSQFIPLGEILCLAISAMNSARKPVTQEALMEHLTTCFPGVPTPSQEILRHTLNTLVRERKIYPTPDGYFIVTP

Variants of: B1
Experiment: abundance fitness (aPCA) (normalised: wild type 0, dead -1); higher = more abundant; growth selection in yeast, the domain comes from the species named
Conditions: Homo sapiens

Variant	abundance fitness
SPISQSQFIPLGEILCLAISAMNSARKPVTQEALMEHLTTCFPGVPTPSQEILRHTLTTLVRERKIYPTPDGYFIVTP	-0.018 ± 0.056
SPISQSQFIPLGEILCLAISAMNSARKPVTQEALMEHLTTCFPGVPTPSQEILRHTLRTLVRERKIYPTPDGYFIVTP	-0.016 ± 0.036
SPISQSQFIPLGEILCLAISAMNSARKPVTQEALMEHLTTCFPGVPTPSQEILRHTLCTLVRERKIYPTPDGYFIVTP	-0.052 ± 0.072
SPISQSQFIPLGEILCLAISAMNSARKPVTQEALMEHLTTCFPGVPTPSQEILRHTLQTLVRERKIYPTPDGYFIVTP	-0.03 ± 0.037
SPISQSQFIPLGEILCLAISAMNSARKPVTQEALMEHLTTCFPGVPTPSQEILRHTLFTLVRERKIYPTPDGYFIVTP	-0.172 ± 0.068
SPISQSQFIPLGEILCLAISAMNSARKPVTQEALMEHLTTCFPGVPTPSQEILRHTLGTLVRERKIYPTPDGYFIVTP	0 ± 0.031
SPISQSQFIPLGEILCLAISAMNSARKPVTQEALMEHLTTCFPGVPTPSQEILRHTLPTLVRERKIYPTPDGYFIVTP	-0.678 ± 0.074
SPISQSQFIPLGEILCLAISAMNSARKPVTQEALMEHLTTCFPGVPTPSQEILRHTLSTLVRERKIYPTPDGYFIVTP	-0.03 ± 0.048
SPISQSQFIPLGEILCLAISAMNSARKPVTQEALMEHLTTCFPGVPTPSQEILRHTLVTLVRERKIYPTPDGYFIVTP	0.002 ± 0.035
SPISQSQFIPLGEILCLAISAMNSARKPVTQEALMEHLTTCFPGVPTPSQEILRHTLATLVRERKIYPTPDGYFIVTP	0.033 ± 0.04
SPISQSQFIPLGEILCLAISAMNSARKPVTQEALMEHLTTCFPGVPTPSQEILRHTLHTLVRERKIYPTPDGYFIVTP	0.017 ± 0.13
SPISQSQFIPLGEILCLAISAMNSARKPVTQEALMEHLTTCFPGVPTPSQEILRHTLDTLVRERKIYPTPDGYFIVTP	-0.005 ± 0.078
SPISQSQFIPLGEILCLAISAMNSARKPVTQEALMEHLTTCFPGVPTPSQEILRHTLETLVRERKIYPTPDGYFIVTP	0.001 ± 0.065
SPISQSQFIPLGEILCLAISAMNSARKPVTQEALMEHLTTCFPGVPTPSQEILRHTLLTLVRERKIYPTPDGYFIVTP	-0.025 ± 0.041
SPISQSQFIPLGEILCLAISAMNSARKPVTQEALMEHLTTCFPGVPTPSQEILRHTLKTLVRERKIYPTPDGYFIVTP	-0.071 ± 0.059
SPISQSQFIPLGEILCLAISAMNSARKPVTQEALMEHLTTCFPGVPTPSQEILRHTLITLVRERKIYPTPDGYFIVTP	-0.041 ± 0.076
SPISQSQFIPLGEILCLAISAMNSARKPVTQEALMEHLTTCFPGVPTPSQEILRSTLNTLVRERKIYPTPDGYFIVTP	-0.005 ± 0.04
SPISQSQFIPLGEILCLAISAMNSARKPVTQEALMEHLTTCFPGVPTPSQEILRGTLNTLVRERKIYPTPDGYFIVTP	0.06 ± 0.035

Variant	abundance fitness
SPISQSQFIPLGEILCLAISAMNSARKPVTQEALMEHLTTCFPGVPTPSQEILRKTLNTLVRERKIYPTPDGYFIVTP	0.007 ± 0.07
SPISQSQFIPLGEILCLAISAMNSARKPVTQEALMEHLTTCFPGVPTPSQEILRVTLNTLVRERKIYPTPDGYFIVTP	-0.035 ± 0.039
SPISQSQFIPLGEILCLAISAMNSARKPVTQEALMEHLTTCFPGVPTPSQEILRWTLNTLVRERKIYPTPDGYFIVTP	-0.087 ± 0.091
SPISQSQFIPLGEILCLAISAMNSARKPVTQEALMEHLTTCFPGVPTPSQEILRRTLNTLVRERKIYPTPDGYFIVTP	-0.055 ± 0.045
SPISQSQFIPLGEILCLAISAMNSARKPVTQEALMEHLTTCFPGVPTPSQEILRFTLNTLVRERKIYPTPDGYFIVTP	-0.057 ± 0.08
SPISQSQFIPLGEILCLAISAMNSARKPVTQEALMEHLTTCFPGVPTPSQEILRPTLNTLVRERKIYPTPDGYFIVTP	-0.223 ± 0.051
SPISQSQFIPLGEILCLAISAMNSARKPVTQEALMEHLTTCFPGVPTPSQEILRETLNTLVRERKIYPTPDGYFIVTP	0.028 ± 0.052
SPISQSQFIPLGEILCLAISAMNSARKPVTQEALMEHLTTCFPGVPTPSQEILRYTLNTLVRERKIYPTPDGYFIVTP	-0.181 ± 0.11
SPISQSQFIPLGEILCLAISAMNSARKPVTQEALMEHLTTCFPGVPTPSQEILRATLNTLVRERKIYPTPDGYFIVTP	0.007 ± 0.045
SPISQSQFIPLGEILCLAISAMNSARKPVTQEALMEHLTTCFPGVPTPSQEILRTTLNTLVRERKIYPTPDGYFIVTP	0.065 ± 0.051
SPISQSQFIPLGEILCLAISAMNSARKPVTQEALMEHLTTCFPGVPTPSQEILRLTLNTLVRERKIYPTPDGYFIVTP	-0.088 ± 0.039
SPISQSQFIPLGEILCLAISAMNSARKPVTQEALMEHLTTCFPGVPTPSQEILRDTLNTLVRERKIYPTPDGYFIVTP	0.07 ± 0.074
SPISQSQFIPLGEILCLAISAMNSARKPVTQEALMEHLTTCFPGVPTPSQEILRCTLNTLVRERKIYPTPDGYFIVTP	-0.033 ± 0.058
SPISQSQFIPLGEILCLAISAMNSARKPVTQEALMEHLTTCFPGVPTPSQEILRITLNTLVRERKIYPTPDGYFIVTP	-0.103 ± 0.12
SPISQSQFIPLGEILCLAISAMNSARKPVTQEALMEHLTTCFPGVPTPSQEILRNTLNTLVRERKIYPTPDGYFIVTP	0.109 ± 0.083
SPISQSQFIPLGEILCLAISAMNSARKPVTQEALMEHLTTCFPGVPTPSQEILRHTKNTLVRERKIYPTPDGYFIVTP	-0.953 ± 0.28
SPISQSQFIPLGEILCLAISAMNSARKPVTQEALMEHLTTCFPGVPTPSQEILRHTRNTLVRERKIYPTPDGYFIVTP	-1.11 ± 0.12
